# Measured values from patent publication US9307782B2, “Mannanase produced from Cellulosimicrobium sp. strain HY-13” (Korea Research Institute of Bioscience and Biotechnology, priority 2011, dated 2016).
# Marks after values point to notes of the source that are not given here.
# B1: rManH: Recombinant GH5 β-1,4-mannanase of Cellulosimicrobium sp. HY-13 produced in E. coli; SEQ. ID. NO: 1; approximately 44 kDa (protein)
# chain: MRRLFAIVLGAVLALLAVPALAQGASVASDGFSVQDGRIYDANGNRFVPVGVNHAHAWYPSQTQSFADIRAAGANTVRVVLSGGRYGTSSAADVSAVVERCKQNQLVCILENHDTTGYGEDGSARSLASAAQYWTSIASVLRGQERYVMINIGNEPFGNSGFQSWTTDTIAAIRTLRAAGLDHTLVVDAPNWGQDWSFTMRDNAPTVAAADGNVVFSVHMYGVFDTGAEVRAYLDSFTSRGLPIMVGEFGDNHSDGNPDEATIMSYTRSQGIGMLGWSWSGNGGGVEYLDMVNGFSASSLTPWGQRFVHGADGLRARNAPAASVYGGDGGDGDGGAGTAPNGYPYCASASSDPDGDGWGWESSASCVVRGSSADTGSGGGSGSGSTAPNGYPYCASASSDPDGDGWGWESSASCVVRGSSADR
# modifications: cellulosimicrobium
# notes: Recombinant GH5 β-1,4-mannanase of Cellulosimicrobium sp; HY-13 produced in E. coli; ID; NO: 1; approximately 44 kDa
# Key:
# mannanase = test: Effect of metal ions and chemicals on mannanase activity; format: biochemical, Cellulosimicrobium sp. HY-13; settings: for increase of catalytic activity of the mannanase / effect on the enzyme activity: pH 6.0, 50° C.
# [1] = Analysis of degradation product (HPLC, LC-MS/MS); format: biochemical; settings: 1 μg recombinant mannanase, pH 6.0, 30° C., 12 hours, LC area %
# Procedure: (§1) Mannooligomer (M2˜M5, 1 mg/100 μl each) and locust bean gum (1.4 mg/100 μl) were reacted in 50 mM sodium phosphate buffer (pH 6.0) containing 1 μg of the recombinant mannanase at 30° C. for 12 hours, followed by investigation of the hydrolysate. HPLC (high performance liquid chromatography) was performed by using Finnigan Surveyor™ Modular HPLC systems (Thermo Electron Co.) equipped with Asahipak NH2P-50 2D column (5 μm, 2.0×150 mm, Shodex) ran by Xcalibur software (version 1.3 SP2, Thermo Electron Co.). Elution buffer A (0.05% pomalus acid/sterilized water) and elution buffer B (acetonitrile and methanol (7:3) containing 0.05% pomalus acid) were used as moving phases. LC-MS/MS (liquid chromatography/tandem mass spectrometry) was performed by using Finnigan LCQ Advantage MAX ion trap mass spectrometer (Thermo Electron Co.).
# [2] = Analysis of degradation product (HPLC, LC-MS/MS); format: biochemical; settings: substrate Ivory nut mannan; LC area %
# Procedure: as §1, with “Mannooligomer (M2˜M5, 1 mg/100 μl each) and locust bean gum (1.4 mg/100 μl) were reacted in 50 mM sodium phosphate buffer (pH 6.0) containing 1 μg of the recombinant mannanase at 30° C. for 12 hours, followed by investigation of the hydrolysate.” left out
# [3] = Specific activity of mannanase (DNS reducing sugar assay); format: biochemical; settings: pH 6.0, 50° C., 15 minutes
# Procedure: To compare the mannanase activity to different matrixes, locust bean gum, ivory nut mannan and guar gum were used as matrixes and the activity of the purified mannanase to those matrixes were investigated.
# The activity of β-1,4-mannanase was investigated by measuring the reduced amount of glucose isolated from locust bean gum using 3,5-dinitrosalicylic acid (DNS). At this time, D-mannose was used as a standard material. 0.5 Ml of a standard mixture composed of 0.5% locust bean gum was mixed with 0.05 Ml of an enzyme aqueous solution, followed by inducing biodegradation reaction in 50 mM sodium phosphate buffer (pH 6.0) at 50° C. for 15 minutes. The activity of the recombinated mannanase (1 IU) to the mannan substrate was defined as the amount of the protein necessary for the secretion of 1 μmol reducing sugar under the standard analysis condition. Chromogenic PNP-sugar derivative was used to measure another degrading activity of the said recombinated enzyme. The enzyme activity of the recombinated mannanase to the chromogenic substrate was measured under the same conditions as set for the analysis of β-1,4-mannanase activity. The activity of the recombinated mannanase (1 IU) to the PNP-sugar derivative was defined as the amount of the protein necessary for the production of 1 μmol PNP under the standard analysis condition.
# [4] = metal ions 1 mM, 50 mM sodium phosphate buffer (pH 6.0), 50° C., 10 minutes, None = 100.0
# [5] = metal ions 1 mM, chemicals 5 mM, 10 minutes
# [6] = chemicals 5 mM, 50 mM sodium phosphate buffer (pH 6.0), 50° C., 10 minutes, None = 100.0
# [7] = detergent 0.5%, 50 mM sodium phosphate buffer (pH 6.0), 50° C., 10 minutes, None = 100.0
molecule,measurement,setting,value
[Ba+2].[Cl-].[Cl-] [BaCl2],Relative activity (%),mannanase; [4],118.5%
same,increase of catalytic activity of the mannanase,"mannanase; metal ions 1 mM, 10 minutes",approximately 1.2 fold
[Ca+2].[Cl-].[Cl-] [CaCl2],Relative activity (%),mannanase; [4],146.9%
same,increase of catalytic activity of the mannanase,"mannanase; metal ions 1 mM, 10 minutes",at least 1.4 fold
[Cl-].[Cl-].[Co+2] [CoCl2],Relative activity (%),mannanase; pH 6,111.9%
[Cl][Cu][Cl] [CuCl2],Relative activity (%),mannanase; [4],16.7%
O=C(O)CN(CCN(CC(=O)O)CC(=O)O)CC(=O)O [EDTA],Relative activity (%),mannanase; pH 6,19.0%
O=S(=O)([O-])[O-].[Fe+2] [FeSO4],Relative activity (%),mannanase; [4],42.2%
[Cl][Hg][Cl] [HgCl2],effect on the enzyme activity,mannanase; [5],inactivated
same,Relative activity (%),mannanase; [4],0%
O=S(=O)([O-])[O-].[Mg+2] [MgSO4],effect on the enzyme activity,mannanase; [5],no effect
same,Relative activity (%),mannanase; [4],99.9%
[Cl][Mn][Cl] [MnCl2],Relative activity (%),mannanase; [4],125.2%
same,increase of catalytic activity of the mannanase,"mannanase; metal ions 1 mM, 10 minutes",approximately 1.2 fold
O=C1CCC(=O)N1Br [N-Bromosuccinimide],Relative activity (%),mannanase; [6],0%
same,effect on the enzyme activity,mannanase; [5],inactivated
CCN1C(=O)C=CC1=O [N-Ethylmaleimide],Relative activity (%),mannanase; [6],121.4%
O=S(=O)([O-])[O-].[Ni+2] [NiSO4],Relative activity (%),mannanase; [4],67.1%
NC(=O)CI [Odoacetamide],Relative activity (%),mannanase; [6],113.3%
[Cl][Sn][Cl] [SnCl2],effect on the enzyme activity,mannanase; [5],no effect
same,Relative activity (%),mannanase; [4],103.7%
CCCCCCCC/C=C\CCCCCCCC(=O)OCCOCC(OCCO)C1OCC(OCCO)C1OCCO (stereo not drawn) [Tween 80],Relative activity (%),mannanase; [7],103.5%
O=S(=O)([O-])[O-].[Zn+2] [ZnSO4],Relative activity (%),mannanase; [4],47.4%
Triton X-100,Relative activity (%),mannanase; [7],98.9%
B1,Composition (%) of products formed by hydrolysis reaction: M1,[1]; substrate Locust bean gum,1.1%
same,Composition (%) of products formed by hydrolysis reaction: M2,[1]; substrate Locust bean gum,6.4%
same,Composition (%) of products formed by hydrolysis reaction: M3,[1]; substrate Locust bean gum,1.5%
same,Composition (%) of products formed by hydrolysis reaction: M4,[1]; substrate Locust bean gum,7.4%
same,Composition (%) of products formed by hydrolysis reaction: M5,[1]; substrate Locust bean gum,44.2%
same,Composition (%) of products formed by hydrolysis reaction: M6,[1]; substrate Locust bean gum,16.1%
same,Composition (%) of products formed by hydrolysis reaction: M7,[1]; substrate Locust bean gum,21.4%
same,Composition (%) of products formed by hydrolysis reaction: M8,[1]; substrate Locust bean gum,1.9%
same,Composition (%) of products formed by hydrolysis reaction: M2,[1]; substrate M2,100.0%
same,Composition (%) of products formed by hydrolysis reaction: M1,[1]; substrate M3,3.5%
same,Composition (%) of products formed by hydrolysis reaction: M2,[1]; substrate M3,60.1%
same,Composition (%) of products formed by hydrolysis reaction: M3,[1]; substrate M3,31.6%
same,Composition (%) of products formed by hydrolysis reaction: M4,[1]; substrate M3,4.0%
same,Composition (%) of products formed by hydrolysis reaction: M5,[1]; substrate M3,0.8%
same,Composition (%) of products formed by hydrolysis reaction: M1,[1]; substrate M4,3.9%
same,Composition (%) of products formed by hydrolysis reaction: M2,[1]; substrate M4,55.5%
same,Composition (%) of products formed by hydrolysis reaction: M3,[1]; substrate M4,28.8%
same,Composition (%) of products formed by hydrolysis reaction: M4,[1]; substrate M4,9.9%
same,Composition (%) of products formed by hydrolysis reaction: M5,[1]; substrate M4,1.9%
same,Composition (%) of products formed by hydrolysis reaction: M1,[1]; substrate M5,4.1%
same,Composition (%) of products formed by hydrolysis reaction: M2,[1]; substrate M5,46.9%
same,Composition (%) of products formed by hydrolysis reaction: M3,[1]; substrate M5,21.8%
same,Composition (%) of products formed by hydrolysis reaction: M4,[1]; substrate M5,16.6%
same,Composition (%) of products formed by hydrolysis reaction: M5,[1]; substrate M5,7.9%
same,Composition (%) of products formed by hydrolysis reaction: M6,[1]; substrate M5,2.8%
same,Composition (%) of products formed by hydrolysis reaction: M7,[1]; substrate M5,0.9%
same,Composition (%) of products formed by hydrolysis reaction: M1,[2],3.3%
same,Composition (%) of products formed by hydrolysis reaction: M2,[2],17.5%
same,Composition (%) of products formed by hydrolysis reaction: M3,[2],13.9%
same,Composition (%) of products formed by hydrolysis reaction: M4,[2],25.2%
same,Composition (%) of products formed by hydrolysis reaction: M5,[2],19.7%
same,Composition (%) of products formed by hydrolysis reaction: M6,[2],12.9%
same,Composition (%) of products formed by hydrolysis reaction: M7,[2],7.5%
same,Composition (%) of products formed by hydrolysis reaction: M8,[2],2.9%
same,Specific activity,[3]; substrate Guar gum,967 ± 18 IU mg^−1
same,Specific activity,[3]; substrate Insoluble ivory nut mannan,"14,711 ± 183 IU mg^−1"
same,Specific activity,[3]; substrate Locust bean gum,"8,498 ± 105 IU mg^−1"
same,Specific activity,[3]; toward insoluble ivory nut mannan,"14,711^c IU/mg"
same,Specific activity,[3]; toward locust bean gum,"8,498^d IU/mg"
